From patent US9994881B2, “Functionalized carboxylic acids and alcohols by reverse fatty acid oxidation in engineered microbes” (William Marsh Rice University, priority 2011, dated 2018)
Marks after values point to notes of the source that are not given here.

What was measured:
[1] = target: T1, E. coli YciA (acyl-CoA thioesterase, NP_415769.1), wild type (Escherichia coli, UniProt P0A8Z0); assay: Thioesterase kinetics (production of TNB at 412 nm); details: pH 7.5, 200 mM KCl, DTNB, 25° C.
T1 sequence (P0A8Z0 1-132): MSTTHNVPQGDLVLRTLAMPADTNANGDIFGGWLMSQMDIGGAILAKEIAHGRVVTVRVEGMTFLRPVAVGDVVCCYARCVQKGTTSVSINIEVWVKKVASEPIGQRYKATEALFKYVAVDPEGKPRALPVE
Experimental: Cells were lysed using Bacterial Protein Extraction Reagent (B-PER) (Thermo Scientific, Waltham, Mass.) as per the prescribed protocol in order to obtain the supernatant containing the active enzymes.
For kinetic characterization, an appropriate amount of enzyme was established by checking linear range near predicted KM values. Then, the rates were measured for a range of substrates in order to establish kcat and KM. In the cases of FadB for the crotonase reaction and FadA in the “forward” thiolase reaction coupled with HBD, substrate saturation could not be established, as such, the kcat/KM for the reaction was determined by dividing the linear slope of Velocity vs. [Substrate] by the amount of enzyme used in the assays. For reactions that could be saturated, Velocity vs. [Substrate] was fitted by the EnzKIN Matlab module (mathworks.com/matlabcentral/fileexchange/26653) to establish Vmax and KM.
Thioesterase activity was monitored by following the production of TNB at 412 nm (ε=4.3 mM^−1 cm^−1)^30. Reactions were carried out in the presence of 100 mM Tris pH 7.5, 200 mM KCl, 25 mM DTNB and 200 μM of the ‘-CoA’ substrate in a volume of 200 μL at 25° C.

[2] = thiolase activity in the reverse direction (loss of acetoacetyl-CoA at 303 nm); format: biochemical; details: substrate Acetoacetyl-CoA; supernatant fraction; AtoB expressed from pCA24N, FadA from pUCBB-ntH6
Experimental: (§1) Cultures for enzymatic assays were grown overnight in 100 mL of LB media at 37° C. in 250 mL baffled flasks (Wheaton Industries, Inc., Millville, N.J.) in E. coli BL21 (DE3) cells induced with either 1 mM IPTG (pCA24N, pTrcHis2A) or 1 mM Arabinose (pUCBB-pBAD) at an OD600˜0.6, or expressed constitutively (pUCBB-ntH6). Reactions were monitored on either a Synergy HT plate reader (BioTek Instruments, Inc., Winooski, Vt.) at 25° C. (for reactions monitored at 300 nm or higher) or in a Biomate 5 Spectrophotometer (Thermo Scientific, Waltham, Mass.) for reactions at 263 nm. […]
(§2) For kinetic characterization, his-tagged proteins of AtoB, FadA, FadB, caHBD, egTER were purified from the B-PER supernatant fractions using Talon Metal Affinity Resin (Clontech Laboratories, Inc., Mountain View, Calif.) using gravity purification. […] Enzyme concentration was established by measuring the absorbance at […] and extinction coefficients predicted for each enzyme by the ProtParam program (web.expasy.org/protparam/).
(§3) For kinetic characterization, an appropriate amount of enzyme was established by checking linear range near predicted KM values. Then, the rates were measured for a range of substrates in order to establish kcat and KM. […]

[3] = forward thiolase assay (biosynthetic direction), coupled with caHBD; format: biochemical; details: substrate Acetyl-CoA; supernatant fraction; AtoB expressed from pCA24N, FadA from pUCBB-ntH6
Experimental: as §1, §2, §3

Compound: CC(=O)SCCNC(=O)CCNC(=O)[C@H](O)C(C)(C)COP(=O)(O)OP(=O)(O)OC[C@H]1O[C@@H](n2cnc3c(N)ncnc32)[C@H](O)[C@@H]1OP(=O)(O)O [Acetyl-CoA]
- kcat [1]: 6.9 ± 0.1 s⁻¹

Compound: AtoB: E. coli thiolase with higher specificity for short-chain acyl-CoA molecules
- Specific Activity [2]: 0.36 ± 0.05^b μmol/mg/min
- Specific Activity [3]: 0.919 ± 0.002^b μmol/mg/min
